Assay results reported in the nanobody polyreactivity screen of Harvey et al. (2022).

test: yeast display, Sf9 membrane polyspecificity reagent, FACS + sequencing; frameworks hold sequencing errors
Summary of the method: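 Sorting gates, low and high (top ~1%), were placed on anti-HA fluorescence to track expression and on streptavidin fluorescence to track reagent binding. A clone's polyreactivity label is taken from the gate it came out of. The reagent was 10% biotinylated, detergent-solubilized Sf9 membrane, applied for 1 hour at 4 °C to galactose-induced yeast display cells.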

Row | Sequence | polyreactivity (PSR sort gate)
1 | QVQLVESGGGLVQAGGSLRLSCAASGITFLPYAMGWYRPAPGKERELVAAITRGGGSTYADSVKGRFTISRDNAKNTVYLQMYSLKPEDTAVYYCNAKGRGWTAQYDYWGQGTQVTVSS | low polyreactivity
2 | QVQLVESGGGLVQAGGSLRLSCAASGITFLSNAMGWYRQAPGKERELVAAIDWRGDSTYYADSVKGRFTISRDNAKNTGYLQMNRLKPEDTAVYYCNADISGSGQWDGYDYWGQGTQVTVSS | low polyreactivity
3 | QVQLVESGGGLVQAGGSLRLSCAASGITFNGYVMGWYRQAPGKERELVAAITSGGSTNYADSVKGRFTISRDNAKNTVYLQMNSLKPEDTAVYYCAARYKAYWQLYDYWGQGTQVTVSS | high polyreactivity
4 | QVQLVESGGGLVQAGGSLRLSCAASGITFNHYTMGWYRQAPGKERELVAAISSRGSTTYYADSVKGRFTISRDNAKNTVYLQMNSLKPEDTAVYYCAARYPTYYRPRYRGRPGYDYWGKGTQVTVSS | high polyreactivity
5 | QVQLVESGGGLVQAGGSLRLSCAASGITFNLYAMGWYRQAPGKERELVASINSGGSPYYADSVKGRFTISRDNAKNTVYLQMNSLKPEDTAVYYCAAETSYYYRGYWKSYDYWGQGTQVTVSS | high polyreactivity
6 | QVQLVESGGGLVQAGGSLRLSCAASGITFNPYGMGWYRPAPGKERELVADITCGGITDYADCVKGRFTIARDNAKNTVYLHKNSLKPEETAVYYCATGDLFVYYWCYVVRLYDYWGQGTQVTVSS | low polyreactivity
7 | QVQLVESGGGLVQAGGSLRLSCAASGITFNRYAMGGYRQAPGKERELVASITSGGRTNYADSVKGRFTISRDNAKNTVYLQMNSLKPEDTAVYYCAVRWVRSRSSSLRKANYYWGQGTIVTVSS | high polyreactivity
8 | QVQLVESGGGLVQAGGSLRLSCAASGITFNYYAMGWYRQAPGKERELVAAITDDGNTNYADSVKGRFTISRDNAKNTVYLQMNSLKPEDTAVYYCAADLLGIPDYEYWGQGTQVTVSS | low polyreactivity
9 | QVQLVESGGGLVQAGGSLRLSCAASGITFPDYAMGWYRQAPGKERELVATISSSGGNTYYADSVKGRFTISRDNAKNTVYLQMNSLKPEETAVYYCATVSYYCGYDYWGQGTQVTVSS | low polyreactivity
10 | QVQLVESGGGLVQAGGSLRLSCAASGITFPFYAMGWYRQAPGKERELVAAISRRGGRTYYADSVKGRFTISRDNAKNTVYLQMNSLKPEDTAVYYCAAANGSADGDYWGQGTQVTVSS | high polyreactivity
11 | QVQLVESGGGLVQAGGSLRLSCAASGITFPLYVMGWSRQAPGKERELVAAISASGGSTYADSVKGRFTISRDNAKNTVYLQMNSLKPEDTAVYYCNADVYVGYEYDYWGQGTQVTVSS | low polyreactivity
12 | QVQLVESGGGLVQAGGSLRLSCAASGITFPQYAMGWYRQAPGKERELVAAITSGGSTNYADSVKGRFTISRDNGKNTVYLQMNSLKPEDTGVYYCNTAGYYWLHYTMDYWGQGTQVTVSS | high polyreactivity
13 | QVQLVESGGGLVQAGGSLRLSCAASGITFPRYAMGWYRQAPGKERELVATITRSGGGTYYADSVKGRFTISRDNAKNTVNLQMNSLKPEDTAVYYCAAGALQRGVYGYGYWGQGTQVTVSS | high polyreactivity
14 | QVQLVESGGGLVQAGGSLRLSCAASGITFPSYVMGWYRQAPGKEREFVAAITGSAGSTYYADSVKGRFTISRDNAKYTVYLQMNSLKPEDTAVYYCAARVRYVNPKYYYWGQGTQVTVSS | high polyreactivity
15 | QVQLVESGGGLVQAGGSLRLSCAASGITFPYYAMGWYRQAPGKERELVAAISDGGSTNYADSVKGRFTISRDNAKNTVYLQMNSLKPEDTAVYYCAADYRYLFDYWGQGTQVTVSS | high polyreactivity
16 | QVQLVESGGGLVQAGGSLRLSCAASGITFQGNAMGWYRQAPGKERELVAAISSGGNTHYADSVKGRFTISRDNAKNTVYLQMNSLKPEDTAVYYCAASYYYTYYWGQGTQVTVSS | low polyreactivity
17 | QVQLVESGGGLVQAGGSLRLSCAASGITFQKNAMGWDRPAPGKEMEWVAGITWRGSTYYADSVKGRFTISRDNAKNTVYLQMNSLKPEETAVYYCAADPFYWYRSVRGEYWGQGTQVTVSS | low polyreactivity
18 | QVQLVESGGGLVQAGGSLRLSCAASGITFQKNAMGWYRKAPGKERELVAGITWRGSTYYADSVKGRFTISRDNAKNTVYLQMNSLKPEDTAVYYCAADPFYWYRSFRGEYWGKGTQVTVSS | low polyreactivity
19 | QVQLVESGGGLVQAGGSLRLSCAASGITFQRNAMGWYRQAPGKERELVAVITSIGGRTYYADSVKGRFTISRDNAKNTVYLQMNSLKPEDTAVYYCNAASATRSADWYDYDYWGQGTQVTVSS | high polyreactivity
20 | QVQLVESGGGLVQAGGSLRLSCAASGITFQRYAMGWYRQAPGKERELVAAISTNGGTTYYADSVKGRFTISRDNAKNTVYLQMNSLKPEDTAVYYCNAESGYVYYFRYNYLGQGTQVTVSS | high polyreactivity
21 | QVQLVESGGGLVQAGGSLRLSCAASGITFQRYAMGWYRQAPGKERELVAAITRGGSTNYADSVKGRFTISRDNAKNTVYLQMNSLKPEDTAVYYCAAGYKITSVYGFYYWGQGTQVTVSS | high polyreactivity
22 | QVQLVESGGGLVQAGGSLRLSCAASGITFQRYVMGWYRQAPGKERELVAAISFSGSSTYYADSVKGRFTISRDNAKNTVYLQMNSLKPEDTAVYYCAADGSVPKYVPYPRYYGYGYWGQGTQVTVSS | high polyreactivity

Row | Sequence | polyreactivity (PSR sort gate)
23 | QVQLVESGGGLVQAGGSLRLSCAASGITFQTYAMGWYRQAPGKERELVAAIRWGGGTTYYADSVKGRFTISRDNAKNTVYLQMNSLKPEDTAVYYCAARTYYRRGGRVDYWGQGTQVTVSS | high polyreactivity
24 | QVQLVESGGGLVQAGGSLRLSCAASGITFQTYTMGWYRQAPGKERELVATISWNGGSTYYADSVKGRFTISRDNAKNTVYLQMNSLKPEDNAVYDCATGKWGYFRYNYWGQGTQVTVSS | high polyreactivity
25 | QVQLVESGGGLVQAGGSLRLSCAASGITFQYNAMGWYRQAPGKERELVAAINYSGGSTYYADSVKGRYTISRDNAKNTVYLQMNSLKPEDTAVYYCAKDGTDYSHRPGKWEFDSWGQGTQVSVSS | low polyreactivity
26 | QVQLVESGGGLVQAGGSLRLSCAASGITFRANAMGWYRQAPGKERELVAAISARGGSTYYADSVKGRFTISRDNAKNTVYLQMNSLKPEDTAVYYCNAVAYRSRSEYDYWGQGTQVTVSS | high polyreactivity
27 | QVQLVESGGGLVQAGGSLRLSCAASGITFRDYAMGWYRQAPGKERELVAAISTRGVRTYYADSVKGRFTISRDNAKNTVYLQMNSLKPEDTAVYYCAARSVTYWWVGYEFYYWGQGTQVTVSS | high polyreactivity
28 | QVQLVESGGGLVQAGGSLRLSCAASGITFRFYAMGWYRQAPGKERELVAVISRGGGTTYYADSVKGRFTISRDNAKNTVYLQMNSLKPADTSVYYCAADYYYVQSELGYDYWGQGTQVTVSS | high polyreactivity
29 | QVQLVESGGGLVQAGGSLRLSCAASGITFRHNAMGWYRQAPGKERELVAAISRRTYYSDSVKGRFTISRDNAKNTVYLQMNSLKPEDTAVYYCAKDVDYVSDSPYDYWGQGTQVTVSS | low polyreactivity
30 | QVQLVESGGGLVQAGGSLRLSCAASGITFRLYAMGWYRQAPGKERELVAAITGSGGRTYYADSVKGRFTISRDNAKNTVYLQMNSLNPEDTAVFYCNVYPPYAMDYWGQGTQVTVSS | high polyreactivity
31 | QVQLVESGGGLVQAGGSLRLSCAASGITFRRNAMGWYRQAPGKERELFAGITRGGTTKYADSVKGRFTISRDNAKNTVYLQMNSLKPEDTAVYFCAAKDNSYGGPPQFGYWGQGTQVTVSS | high polyreactivity
32 | QVQLVESGGGLVQAGGSLRLSCAASGITFRRYAMGWYRPAPGKERELVASISRGGSTYYADSVKGRFTISRDNAKNTVYLQMNSLTPEDTAVYYCAADVAGRYDYWGQGTQVTVSS | high polyreactivity
33 | QVQLVESGGGLVQAGGSLRLSCAASGITFRRYAMGWYRQAPGKERELVASITSGGSTNYADSVKGRFTISRDNAKNTVYLQMNSLKPEDTAVYYCAADSRWGMDYWGQGTQVTVSS | high polyreactivity
34 | QVQLVESGGGLVQAGGSLRLSCAASGITFRTNTMGWYRQAPGKEREFVAAISSNGGRTYYADSVKGRFTISRDNAKNTVYLQMNSLKPEDTAVYYCNARTKHRYEYDYWGQGTQVTVSS | high polyreactivity
35 | QVQLVESGGGLVQAGGSLRLSCAASGITFRTYAMGWNRQAPGKERELVAAITRRGGSTYYADSVKGRFTISRDNAKNTVYLQMNSLKPEDTAVYYCAVRHNGIQASVGYDYWGQGTQVTVSS | high polyreactivity
36 | QVQLVESGGGLVQAGGSLRLSCAASGITFRVNTMGWYRKAPGKETEFVATISYSGDSTYYADSVKGRFTISRDNAKNTVYLQMNSLKPEDTAVYYCATELVFYGRDYWGQGTQVTVSS | low polyreactivity
37 | QVQLVESGGGLVQAGGSLRLSCAASGITFRWNAMGWYRQAPGKERELVAAITTRGGGTYYADSVKGRFTISRDNAKNTVYLQMNSLKPEDTAVYYCAAKKSRYPYNYWGQGTQVTVSS | high polyreactivity
38 | QVQLVESGGGLVQAGGSLRLSCAASGITFRWYAMGWYRQAPGKERELVAAIRSGSSTYYADSVKGRFTISRDNAKNTVYLQMNSLKPEDPAVYYCNARPWYSWGVDYDYWGQGTQVTVSS | low polyreactivity
39 | QVQLVESGGGLVQAGGSLRLSCAASGITFRWYAMGWYRQAPGKERELVAAISSSGGSTYYADSVKGRFTISRDNAKNTVYLQMNSLKPEVTAVYYCAAYTSYASDYWGQGTQVTVSS | high polyreactivity
40 | QVQLVESGGGLVQAGGSLRLSCAASGITFRYYAMGWSRQAPGKERELVAAITRGGRTNYADSVKGRFTISRDNAKNTVYLQMNSLKPEDTAVYYCATGRDSNFGNSYYYWGQGTQVTVSS | high polyreactivity
41 | QVQLVESGGGLVQAGGSLRLSCAASGITFRYYAMGWYRPAPGKERELVASITSGGVNTYYADSVKGRFTISRDNAKNTVYLQMNSLKPEDTAVYYCATTYVGETLTGPGDYWGQGTQVTVSS | low polyreactivity
42 | QVQLVESGGGLVQAGGSLRLSCAASGITFRYYAMGWYRQAPGKERELVATITRGGSTYYADSVKGRFTISRDNAKNTVYLQMNSLKPEDTAVYYCAARQWYRYKVRFDYWGQGTQVTVSS | high polyreactivity
43 | QVQLVESGGGLVQAGGSLRLSCAASGITFRYYAMGWYRQGPGKERELVASITSGGVNTYYADSVKGRFTISRDNANNTDYLQMNSLKPEDTAVFYCATRFSYSALGGYDYWGQGTQVTVSS | low polyreactivity
